Source: publication PMC6532931, “Structures suggest a mechanism for energy coupling by a family of organic anion transporters” (PLoS Biology, 2019)

Substrate: O=C(O)[C@H](O)[C@@H](O)[C@@H](O)[C@H](O)CO
Experiment: cells, lysate or membranes
Format: cell-based, Escherichia coli
Settings: pH 6.5, 150 mM KCl, 25 °C, 30 s uptake, labelled compound, H+ symport

B1: DgoT (Escherichia coli) (protein)
chain: MVSGFAMPKIWRKLAMDIPVNAAKPGRRRYLTLVMIFITVVICYVDRANLAVASAHIQEEFGITKAEMGYVFSAFAWLYTLCQIPGGWFLDRVGSRVTYFIAIFGWSVATLFQGFATGLMSLIGLRAITGIFEAPAFPTNNRMVTSWFPEHERASAVGFYTSGQFVGLAFLTPLLIWIQEMLSWHWVFIVTGGIGIIWSLIWFKVYQPPRLTKGISKAELDYIRDGGGLVDGDAPVKKEARQPLTAKDWKLVFHRKLIGVYLGQFAVASTLWFFLTWFPNYLTQEKGITALKAGFMTTVPFLAAFVGVLLSGWVADLLVRKGFSLGFARKTPIICGLLISTCIMGANYTNDPMMIMCLMALAFFGNGFASITWSLVSSLAPMRLIGLTGGVFNFAGGLGGITVPLVVGYLAQGYGFAPALVYISAVALIGALSYILLVGDVKRVG
notes: full-length in pQE60, C-terminal thrombin site and decahistidine tag (kept in uptake assays, cut for crystallization); expressed in E. coli dgoT knock-out (Keio, lambda-DE3) for uptake, E. coli C41 for purification
**Q.** With B1 as the protein, how does the Km read?
**A.** 18 ± 4 µM
